One assay concerns the target MBP. In words: ELISA: human EphA4 domain-MBP-His proteins (10 nM) captured on anti-6-His antibody, antibody B 10 nM, HRP anti-human IgG Fc fragment antibody, OD450-OD650. The protocol: Rabbit anti-6-His antibodies (Bethyl Laboratories) were coated onto the wells of a 96-well plate (Nunc). After incubating at 4° C. overnight, the wells were blocked at room temperature for 1 hour by 1% Block Ace (DS Pharma Biomedical). After washing twice with 0.02% Tween 20/PBS (Nacalai Tesque), human EphA4 extracellular region-MBP-His protein, human EphA4 ligand binding domain-MBP-His protein, human EphA4 fibronectin type III domain 1-MBP-His protein, and human EphA4 fibronectin type III domain 2-MBP-His protein (final concentration 10 nM) were seeded into the wells, and incubated at room temperature for 1 hour. After washing 3 times, antibody B (final concentration 10 nM) was supplemented to the wells, and incubated at room temperature for 1 hour. Horseradish peroxidase-labeled rabbit anti-human IgG Fey fragment antibody (Jackson ImmunoResearch Laboratories) was added, and incubated at room temperature for 1 hour. After washing 5 times, TMB (KPL) solution was added to the wells, and upon confirmation of modest coloring, an equal amount of quenching solution (2 N […]) was added to the wells, and absorbance at 450 nm and 650 nm were read by a microplate reader (PerkinElmer).

Assay [1] addresses T1, human EphA4 extracellular region-SEAP-His protein (human, UniProt P54764 20-547).
T1 construct: also called human EphA4 extracellular region-SEAP-His 10; not shown: secretory alkaline phosphatase (SEAP); histidine tag
In words: competition ELISA; captured human EphA4 extracellular region-SEAP-His, competitor biotinylated human EphrinA5-Fc chimera (0.7 nM). The procedure: Anti-alkaline phosphatase antibodies (Thermo […]) were coated onto the wells of a 96-well plate (Nuns). After incubating at 4° C. overnight, the wells were blocked at room temperature for 1 hour by 1% Block Ace (DS Pharma Biomedical). After washing 3 times with 0.05% Tween 20/PBS (Thermo […]), human EphA4 extracellular region-SEAP-His protein was added to the wells (final concentration 10 nM), and incubated at room temperature for 1 hour. After washing 3 times, the ligand and serially diluted antibody A (0, 0.003, 0.01, 0.03, 0.1, 0.3, 1, 3, 10, 30, 100, 300, 1000, 3000 nM) were supplemented to the wells. Note that biotinylated human EphrinA5-Fc chimera (R&D Systems, final concentration 0.7 nM) and biotinylated human EphrinB3-Fc chimera (R&D Systems, final concentration 2.3 nM) were employed as ligands. After incubating at room temperature for 1 hour and washing 3 times, horseradish peroxidase-labeled streptavidin (GE Healthcare) was added, and incubated at room, temperature for 1 hour. After washing 3 times, TMBZ (3,3′,5,5 ′-tetramethylbenzidine, Sigma) solution was added to the wells, and incubated at room temperature for 2-5minutes. An equal amount of quenching solution (1 N H₂SO₄, Wako Pure Chemicals) was added to the wells, and absorbance at 450 nm was read by a microplate reader (Molecular Devices or PerkinElmer). […]
(In general: In an ELISA, binding on a coated surface is turned into a signal by an enzyme label.)

Assay [2] has as its target T1, human EphA4 extracellular …. In words: SPR, Biacore T200; EphA4 extracellular region-SEAP-His captured on anti-His chip, antibody as analyte, 1:1 model. The procedure: The binding affinity of antibody A against mouse and human EphA4 was determined by surface plasmon resonance (SPR method) employing Biacore T200 (GE Healthcare). First, anti-His antibodies (GE Healthcare, 28-9950-56) were fixed to a sensor chip CM5. Fixation was carried out by amine coupling method employing N-hydroxysuccinimide (NHS) and N-ethyl-N′-(3-dimethylaminopropyl) carbodiimide hydrochloride salt (EDC), and ethanolamine was employed for blocking (the sensor chip and reagents for fixation are all from GE Healthcare). This was diluted with the fixation buffer (10 mM sodium acetate, pH 4.5) to 3.5 μg/mL, and fixed onto the sensor chip according to the protocol accompanying Biacore T200. Mouse or human EphA4 extracellular region-SEAP-His 10 was diluted with the running buffer HBS-EP (GE Healthcare, BR-1001-88), and the solution was sent and captured onto the flow cell for 120 seconds (about 10 RU of captured amount). Subsequently, antibody A serially diluted to a range of 100, 50, 25, 12.5, 6.3, 3.2, 1.6, 0 nM with HBS-EP was added to the sensor chip for 120 seconds, and the binding reaction curve at the time of addition (binding phase, 120 seconds) and after completing the addition (dissociation phase, 600 seconds) was sequentially observed. Upon completion of each observation, 4 M MgCl₂ (60 seconds, Wako Pure Chemicals) was added to regenerate the sensor chip. Fitting analysis by 1:1 binding model employing the software accompanying the system, BIA evaluation software, was carried out against the binding reaction curve obtained, and the binding affinity (KD=kd/ka) against mouse and human EphA4 was calculated.
The binding affinity of antibody B obtained in Example 1 against human EphA4 was determined by surface plasmon resonance (SPR method) employing Biacore T200 (GE Healthcare). First, anti-His antibodies (GE Healthcare, 28-9950-56) were fixed to a sensor chip CMS. […]

For assay [3], the target named is T2, human EphA5 extracellular region-SEAP-His protein (human, UniProt P54756 25-573).
T2 construct: extracellular domain; also called Eph receptor extracellular region-SEAP-His protein; not shown: secretory alkaline phosphatase (SEAP); histidine tag
T2 sequence (P54756 25-573): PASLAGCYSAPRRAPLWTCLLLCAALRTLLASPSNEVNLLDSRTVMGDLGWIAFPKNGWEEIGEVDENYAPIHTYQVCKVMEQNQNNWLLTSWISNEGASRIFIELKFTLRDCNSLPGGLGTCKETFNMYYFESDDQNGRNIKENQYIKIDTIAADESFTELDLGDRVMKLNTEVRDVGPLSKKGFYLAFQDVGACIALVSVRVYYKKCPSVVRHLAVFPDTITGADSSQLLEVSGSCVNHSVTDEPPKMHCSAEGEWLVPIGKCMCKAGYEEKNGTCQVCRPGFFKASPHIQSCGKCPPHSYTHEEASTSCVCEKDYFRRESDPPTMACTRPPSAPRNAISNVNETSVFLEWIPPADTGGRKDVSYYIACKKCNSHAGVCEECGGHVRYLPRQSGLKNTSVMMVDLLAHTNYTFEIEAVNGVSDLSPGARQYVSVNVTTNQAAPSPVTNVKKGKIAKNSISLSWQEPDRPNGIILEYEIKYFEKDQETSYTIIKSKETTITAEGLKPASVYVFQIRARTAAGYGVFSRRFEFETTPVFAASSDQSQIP
Nature of the assay: ELISA: SEAP-His proteins (1 nM) captured on anti-6-His antibody, antibody B 10 µg/mL with human IgG 100 µg/mL, HRP anti-human IgG, OD450 as % of human EphA4-SEAP-His.

T1 sequence (P54764 20-547): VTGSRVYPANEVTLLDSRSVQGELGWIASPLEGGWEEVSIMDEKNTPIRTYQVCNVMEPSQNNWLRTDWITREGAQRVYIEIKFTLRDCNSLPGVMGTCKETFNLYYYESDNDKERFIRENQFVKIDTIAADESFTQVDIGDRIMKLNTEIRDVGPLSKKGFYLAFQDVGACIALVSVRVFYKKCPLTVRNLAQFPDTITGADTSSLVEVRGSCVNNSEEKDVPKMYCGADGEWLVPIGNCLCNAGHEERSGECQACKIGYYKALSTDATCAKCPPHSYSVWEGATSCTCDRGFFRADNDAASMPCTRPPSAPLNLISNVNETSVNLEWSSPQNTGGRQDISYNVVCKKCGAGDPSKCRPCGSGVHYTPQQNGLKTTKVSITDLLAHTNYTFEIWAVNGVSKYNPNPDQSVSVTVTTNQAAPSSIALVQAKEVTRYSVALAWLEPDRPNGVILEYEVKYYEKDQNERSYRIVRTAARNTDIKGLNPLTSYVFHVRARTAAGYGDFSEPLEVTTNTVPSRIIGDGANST

B1: humanized anti-EphA4 monoclonal antibody (antibody B) (antibody, human IgG2, V domains shown)
VH: QVQLVESGGGVVQPGRSLRLSCAVSGFSLTRFGVHWVRQAPGKGLEWVAVIWRGGSTDYNAAFMSRLTISKDNSKNTVYLQMNSLRAEDTAVYYCAKESLFGVYYDYGYYSMDYWGQGTTVTVSS
VL: DIQMTQSPSSLSASVGDRVTITCRASQEISGYLSWLQQKPGKAPKRLIYAASTLDSGVPSRFSGSRSGTEYTLTISSLQPEDFATYYCLQYASYPLTFGGGTKVEIKR
notes: expressed in Expi293F cells; also called humanized antibody of antibody A; HK2-42 / L1-8
With B1, the binding result with MBP is recorded as “no binding (tested: 10 nM)”; in assay [3], “no binding (tested: 10 µg/mL)”. The IC50 in assay [1] was about 4.9 nM. The molecule also returned a Kd in assay [2] of 1.34 nM.

B2: mouse anti-EphA4 monoclonal antibody (antibody A) (antibody, mouse IgG1, kappa, V domains shown)
VH: QVQLKQSGPSLVQPSQSLSITCTVSGFSLTRYGVHWVRQSPGKGLEWLGVIWRGGSTDYNAAFMSRLSITKDNSKSQVFFKMNSLQADDTAIYYCAKESLFGVYYDYGYYSMDYWGQGTSVTVSS
VL: DIQMTQSPSSLSASLGERVSLTCRASQEISGYLSWLQQKPDGTIKRLIYAASTLDSGVPKRFSGSRSGSDYSLTISSLESEDFADYYCLQYASYPLTFGAGTKLELKR
notes: purified from hybridoma supernatant
Turning to B2, the IC50 in assay [1] is about 2.8 nM. In addition, the Kd in assay [2] is 1.19 nM.

As usually defined, the IC50 is the concentration at which inhibition is half-maximal. Lower therefore signals higher potency. By Kd is commonly meant the constant that tells how readily two partners part at equilibrium. Lower therefore signals a tighter complex.

For the origin of these results see patent publication US20240010735A1 (EISAI R AND D MANAGEMENT, published 2024).
